Assay results: article PMC5136619, “Crystal structure of bacterial haem importer complex in the inward-facing conformation” (Nature Communications, 2016)

Legend:
[1] = molecular target: BhuU, transmembrane permease subunit (TMD) of the haem importer BhuUV (Burkholderia cenocepacia); assay: crystal structure; BhuUV without BhuT, nucleotide-free; 30% PEG 400, 0.1 M NaCl, 0.1 M Li2SO4, 0.1 M Tris-HCl pH 8.5, 4 °C; 2.8 Å
[2] = molecular target: BhuU, transmembrane permease subunit (TMD) of the haem importer BhuUV (Burkholderia cenocepacia); assay: crystal structure; BhuUV-T complex, nucleotide-free and haem-free, in n-nonyl-beta-D-glucopyranoside; crystallised at 20 °C, 15% PEG 2000, 0.1 M HEPES pH 7.6; 3.2 Å
[3] = molecular target: BhuV, nucleotide-binding ATPase subunit (NBD) of the haem importer BhuUV (Burkholderia cenocepacia); assay: crystal structure; BhuUV without BhuT, nucleotide-free; 30% PEG 400, 0.1 M NaCl, 0.1 M Li2SO4, 0.1 M Tris-HCl pH 8.5, 4 °C; 2.8 Å
[4] = molecular target: BhuV, nucleotide-binding ATPase subunit (NBD) of the haem importer BhuUV (Burkholderia cenocepacia); assay: crystal structure; BhuUV-T complex, nucleotide-free and haem-free, in n-nonyl-beta-D-glucopyranoside; crystallised at 20 °C, 15% PEG 2000, 0.1 M HEPES pH 7.6; 3.2 Å
[5] = molecular target: BhuUV haem importer complex (two BhuU and two BhuV) (Burkholderia cenocepacia)

Substance: BhuU, transmembrane permease subunit (TMD) of the haem importer BhuUV (natural protein)
- stoichiometry N [1]: 2
- stoichiometry N [2]: 2

Substance: BhuV, nucleotide-binding ATPase subunit (NBD) of the haem importer BhuUV (natural protein)
- stoichiometry N [3]: 2
- stoichiometry N [4]: 2

Substance: BhuT, periplasmic haem-binding protein (PBP), residues 40-311 (domain or fragment)
- ATPase activity (Vmax) of BhuUV in detergent solution on addition of haem-free BhuT (Vmax 5.0 to 7.1 μmol min^−1 mg^−1) [5]: 1.4 fold
- ATPase activity of BhuUV reconstituted in liposomes, with BhuT [5]: 1.4 fold
